In patent publication US20220204599A1 (PRESTIGE BIOPHARMA, published 2022):

Tests used:
[1] = target: T1, collagen triple helix repeat containing-1 (CTHRC1) protein (Homo sapiens (Human), UniProt Q96CG8 31-243); assay: indirect ELISA, CTHRC1 coated at 5 µg/mL, anti-human Fc-HRP
T1 construct: The coated protein may in fact have been CTHRC1-His or CTHRC1-Fc
Protocol: The affinity of cCMAb45 and cCMAb96, which are anti-CTHRC1 chimeric antibodies, prepared in Example 1-3 to the CTHRC1 protein was verified. Indirect ELISA was performed to test the affinity of the antigens and antibodies.
100 μL of CTHRC1 was dispensed at a concentration of 5 μg/mL onto an immuno-plate and coated at 4° C. overnight. The next day, the coated CTHRC1 solution was discarded and blocked for 2 hours. Thereafter, the cCMAb45 and cCMAb96 antibodies were treated at different concentrations and reacted at room temperature for 2 hours, and the antibodies were discarded to remove the unbound antibodies, and then the plate was washed. The OD value was measured using the anti-human Fc-HRP as a second antibody that recognizes human constant regions. In particular, the higher OD value indicates higher affinity between CTHRC1 and the antibodies.

CTHRC1-His = target: T2, CTHRC1-His (Homo sapiens (Human), UniProt Q96CG8 30-243); assay: indirect ELISA, CTHRC1-His coated, re-measurement
T2 construct: also called antigen CTHRC1-His
T2 sequence (Q96CG8 other isoform, or with tags, fused parts or gaps limits assumed): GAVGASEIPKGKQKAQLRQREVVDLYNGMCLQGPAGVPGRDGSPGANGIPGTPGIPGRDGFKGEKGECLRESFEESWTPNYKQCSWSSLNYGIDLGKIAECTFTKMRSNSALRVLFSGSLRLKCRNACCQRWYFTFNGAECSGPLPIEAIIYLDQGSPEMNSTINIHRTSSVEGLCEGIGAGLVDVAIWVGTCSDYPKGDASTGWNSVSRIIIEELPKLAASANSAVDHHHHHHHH

T1 sequence (Q96CG8 31-243 limits assumed): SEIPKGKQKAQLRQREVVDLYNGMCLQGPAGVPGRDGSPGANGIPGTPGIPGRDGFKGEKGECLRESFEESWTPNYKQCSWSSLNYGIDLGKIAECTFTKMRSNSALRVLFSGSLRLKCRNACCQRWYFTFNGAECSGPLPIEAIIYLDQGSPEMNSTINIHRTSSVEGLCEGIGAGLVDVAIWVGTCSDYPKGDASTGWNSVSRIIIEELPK

Binder	Kd [1]	binding result (CTHRC1-His)
cCMAb45 anti-CTHRC1 chimeric antibody (antibody, V domains shown, Detected with anti-human kappa light chain-HRP, so the light chain is kappa; also called chimeric 4H5) VH: EVQLQQSGPELVKPGASVKISCKASGYSFTDYIMLWVKQSHGKSLEWIGNINPYYGSTSYNLKFKGKATLTVDKSSSTAYMQLNSLTSEDSAVYYCARSGYGYDESAMDYWGQGTSVTVSS VL: DVLMTQTPLSLPVNIGDQASISCKSTKSLLNSDGFTYLDWYLQKPGQSPQLLIYLVSNRFSGVPDRFSGSGSGTDFTLKISRVEAEDLGVYYCFQSNYLPLTFGSGTKLEIK	0.52 nM	
hCMAb45 humanized anti-CTHRC1 antibody (antibody, V domains shown, Humanized IgG made by CDR grafting and expressed in HEK293F; also called SA2765; humanized 4H5) VH: QVQLVESGAEVKKPGASVKVSCKASGYSFTDYIILWVRQAPGQGLEWMGAINPYYGSTVYGQKFQGRLTITADGSMSTAYMELSSLRSEDTAVYYCARSGYGYDESAMDYWGQGTLVTVSS VL: DIVMTQTPLSLPVTPGEPASISCRSSKSLLNSDGFTYLDWYLQKPGQSPQLLIYLVSNRFSGVPDRFSGSGSGTDFTLKISRVEAEDVGVYYCFQSNYLPLTFGQGTKLEIK		binds
cCMAb96 anti-CTHRC1 chimeric antibody (antibody, V domains shown, Detected with anti-human kappa light chain-HRP, so the light chain is kappa; also called chimeric 9E6) VH: QVQLQQPGSELVRPGASVKLSCKASGYTFTSYWMHWVKQRPGQGLEWIGNIYPSSGTTNYDEKFKNKATLTVDTSSTTAYMHLSSLTSEDSAVYYCTTESYWGQGTTLTVSS VL: DIVMTQSPSSLSASLGDTITITCHASQNINVWLSWYQQKPGNIPKLLIYKASNLHTGVPSRFSGSGSGTGFTLTISSLQPEDIATYYCQQGQSYPLTFGGGTKLEIK	0.43 nM	
hCMAb96 humanized anti-CTHRC1 antibody (antibody, V domains shown, Humanized IgG made by CDR grafting and expressed in HEK293F; also called SA2770; humanized 9E6) VH: QVQLVQSGAEVKKPGASVKVSCKASGYTFTSYWMHWVRQAPGQGLEWIGYIYPSSGTTNYNQKFQGRVTITADESTSTAYMELSPLRSEDTAVYYCTTESYWGQGTTVTVSS VL: DIQMTQSPSSLSASLGDTITITCHASQNINVWLAWYQQKPGKAPKLLIYKASNLHSGVPSRFSGSGSGTDFTLTISSLQPEDIATYYCQQGQSYPLTFGQGTKVEIK		binds
